The results in this text go back to patent publication US20110065647A1.

This test concerns the target rNaV1.3 channels (rat), P08104. In words: cell-based or functional assay.

Chain of rNaV1.3 channels (rat), P08104 (P08104 whole entry): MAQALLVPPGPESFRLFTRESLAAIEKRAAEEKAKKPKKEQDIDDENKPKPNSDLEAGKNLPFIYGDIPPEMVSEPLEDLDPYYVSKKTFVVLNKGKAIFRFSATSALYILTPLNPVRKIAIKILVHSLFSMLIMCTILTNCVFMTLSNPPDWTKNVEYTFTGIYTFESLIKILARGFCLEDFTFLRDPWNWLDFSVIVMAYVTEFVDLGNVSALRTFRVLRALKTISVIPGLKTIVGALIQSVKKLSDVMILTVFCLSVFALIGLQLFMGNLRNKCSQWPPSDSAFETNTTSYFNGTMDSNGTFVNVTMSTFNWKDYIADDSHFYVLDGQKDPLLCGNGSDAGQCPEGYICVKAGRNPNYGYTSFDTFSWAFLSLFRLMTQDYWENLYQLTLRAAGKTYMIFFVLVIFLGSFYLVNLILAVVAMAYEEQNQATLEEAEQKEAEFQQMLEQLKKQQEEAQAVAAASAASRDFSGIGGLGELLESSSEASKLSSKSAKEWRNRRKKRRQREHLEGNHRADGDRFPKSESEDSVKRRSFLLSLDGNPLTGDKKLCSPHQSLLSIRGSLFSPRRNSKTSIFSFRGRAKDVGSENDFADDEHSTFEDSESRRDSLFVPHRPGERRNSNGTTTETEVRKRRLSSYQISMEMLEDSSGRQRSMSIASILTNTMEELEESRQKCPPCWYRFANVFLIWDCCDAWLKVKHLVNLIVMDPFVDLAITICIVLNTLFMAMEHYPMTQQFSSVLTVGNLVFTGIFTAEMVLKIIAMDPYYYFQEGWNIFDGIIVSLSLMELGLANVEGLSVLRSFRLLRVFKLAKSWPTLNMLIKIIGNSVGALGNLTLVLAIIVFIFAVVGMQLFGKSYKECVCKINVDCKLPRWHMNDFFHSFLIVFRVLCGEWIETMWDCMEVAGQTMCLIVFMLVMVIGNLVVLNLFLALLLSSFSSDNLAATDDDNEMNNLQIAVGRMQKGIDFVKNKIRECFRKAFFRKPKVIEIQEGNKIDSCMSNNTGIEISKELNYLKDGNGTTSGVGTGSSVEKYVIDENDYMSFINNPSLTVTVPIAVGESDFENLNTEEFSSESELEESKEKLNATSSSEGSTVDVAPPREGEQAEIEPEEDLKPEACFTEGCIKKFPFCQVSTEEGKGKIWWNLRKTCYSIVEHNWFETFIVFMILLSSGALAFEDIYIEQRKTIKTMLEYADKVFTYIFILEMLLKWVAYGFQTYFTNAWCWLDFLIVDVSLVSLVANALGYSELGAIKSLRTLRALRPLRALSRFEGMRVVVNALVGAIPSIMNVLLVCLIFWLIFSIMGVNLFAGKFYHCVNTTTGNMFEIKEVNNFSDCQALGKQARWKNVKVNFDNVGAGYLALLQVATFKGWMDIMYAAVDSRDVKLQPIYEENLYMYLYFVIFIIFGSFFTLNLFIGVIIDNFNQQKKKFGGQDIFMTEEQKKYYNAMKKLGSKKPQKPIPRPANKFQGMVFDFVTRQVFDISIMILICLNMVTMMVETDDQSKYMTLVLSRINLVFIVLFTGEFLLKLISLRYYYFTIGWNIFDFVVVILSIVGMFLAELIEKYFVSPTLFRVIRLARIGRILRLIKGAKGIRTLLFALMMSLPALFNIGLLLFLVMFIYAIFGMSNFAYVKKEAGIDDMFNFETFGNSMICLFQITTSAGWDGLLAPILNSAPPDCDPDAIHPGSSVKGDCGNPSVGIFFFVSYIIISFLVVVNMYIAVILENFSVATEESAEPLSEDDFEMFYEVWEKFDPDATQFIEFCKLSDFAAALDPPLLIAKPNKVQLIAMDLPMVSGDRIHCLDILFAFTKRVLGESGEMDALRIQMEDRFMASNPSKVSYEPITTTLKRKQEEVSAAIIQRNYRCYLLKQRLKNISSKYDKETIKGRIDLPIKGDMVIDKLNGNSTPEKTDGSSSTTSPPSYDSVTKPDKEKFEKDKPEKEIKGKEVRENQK

For the molecule DCLGFMRKCIPDNDKCCRPNLVCSRTHKWCKYVF (modifications not checked) [Peptide E], the IC50 Nav1.3 (µM); inhibition of channel current, patch clamp is 0.31 µM.
